Two molecules from publication PMC12090727, “Cell binding, uptake, and infection of influenza A virus using recombinant antibody-based receptors” (Journal of Virology, 2025) can be followed below.

Experiment [1] addresses T1, hemagglutinin (HA) of A/Netherlands/602/2009 (pH1N1), on virions (Influenza A virus …, UniProt C3PSV2).
T1 construct: also called A/Netherlands/602/09; A/Neth/09
In words: flow cytometry on cells. Particulars: partners not purified.

Experiment [2] addresses T2, HA-hFc probe: H1N1 A/California/04/2009 HA ectodomain fused to human IgG1 Fc (Influenza A virus A/California/04/2009 …, UniProt C3W5S1).
T2 construct: also called HA-probe; HA-human Fc probe; source: High Five insect cells (recombinant baculovirus), purified (HiTrap Protein G); not shown: Fc (human IgG1), C-terminal, kept
Description: flow cytometry on cells. The conditions noted are these: one partner purified.

B1: fTfR-5J8 chimeric antibody-based receptor, stably expressed on A549 Slc35A1 KO cells (scFv, V domains shown)
VH: EVQLVESGPGLVKPSDILSLTCAVSGYSISSNYYWGWIRQPPGKGLEWIGSIYHSGSTYYKPSLESRLGISVDTSKNQFSLKLSFVSAADTAVYYCARHVRSGYPDTAYYFDKWGQGTLVTVSS
VL: SYVLTQPPSVSVAPGETARISCGGNNIGTKVLHWYQQTPGQAPVLVVYDDSDRPSGIPERFSGSNSGNTATLTISRVEVGDEADYYCQVWDISTDQAVFGGGTKLTVL
notes: also called LV-fTfR-5J8; LV-5J8-TfR
B1: in experiment [1], the binding result is recorded as “binds”.

B2: Flag-tagged fTfR-5J8 receptor, WT (Flag+) (scFv, V domains shown)
VH: B1 VH
VL: B1 VL
notes: also called WT receptor
Take B2: in experiment [2], the binding result was “binds”.
